In article doi:10.1101/296517 (bioRxiv, 2018):
Several values for one entry are separate records, joined by “and”; a condition that tells them apart may be missing. Equal entries are not always repeated.

Columns and labels:
Western blot = target: the molecule itself; assay: Western blot
Western blot of lysates = target: the molecule itself; assay: Western blot of lysates

Protein | stoichiometry N (Western blot) | stoichiometry N (Western blot of lysates)
Rab6a GTPase (natural protein, human (endogenous in LNCaP), UniProt P20340 1-208, looked up) MSTGGDFGNPLRKFKLVFLGEQSVGKTSLITRFMYDSFDNTYQATIGIDFLSKTMYLEDRTVRLQLWDTAGQERFRSLIPSYIRDSTVAVVVYDITNVNSFQQTTKWIDDVRTERGSDVIIMLVGNKTDLADKRQVSIEEGERKAKELNVMFIETSAKAGYNVKQLFRRVAAALPGMESTQDRSREDMIDIKLEKPQEQPVSEGGCSC | 2 | 
GRASP65 (natural protein) not shown |  | 2 and 4
